Several values for one entry are separate records, joined by “and”; a condition that tells them apart may be missing. Equal values may be shown once. Read-outs that look alike come from different tables or passages of the source.

This note sets out measurements from US6132730.

The target in test [1] is I-A^d (MHC Class II antigen) on A20 mouse B-lymphoma cells (mouse) (UniProt P04228).
The target of test [2] is truncated Tissue Factor tTF219 (extracellular domain of the mature Tissue Factor protein, amino acids 1-219) (human).
For test [3] the target is unchanged. This is another data set of the same source.
Test [4] concerns the target H6-tTF221-cys-C' (human).
In test [5] the target is truncated Tissue Factor tTF219 (extracellular domain of the mature Tissue Factor protein, amino acids 1-219) (human). The source holds these as a separate data set.
Test [6] addresses H6-N'-cys-tTF219 dimer (human).
Test [7] deals with H6-tTF221-cys-C' (human). This is another data set of the same source.
The target in test [8] is truncated Tissue Factor tTF219 (extracellular domain of the mature Tissue Factor protein, amino acids 1-219) (human). This is another data set of the same source.
For test [9], the target named is IgG-H6-N'-cys-tTF219 (human).
Test [10] addresses truncated Tissue Factor tTF219 (extracellular domain of the mature Tissue Factor protein, amino acids 1-219) (human). The source holds these as a separate data set.

Consider “B21-2/10H10 bispecific antibody (Fab' arm of B21-2 linked to Fab' arm of 10H10)”, for which the clotting time of citrated mouse plasma on A20 cells in test [1] and in test [2] was 36 s each time. For the same substance, the tTF concentration at which plasma coagulated in 50 seconds (A20 cells coated with B21-2/10H10) in test [3] was found to be 3 nM; in the test with H6-N'-cys-tTF219 (human), 3 nM; with H6-tTF219-cys-C' (human), 3 nM; with H6-tTF220-cys-C' (human) it was 500 pM; with H6-tTF221-cys-C' (human) [4], 500 pM; in the test with tTF220-cys-C' (human), 500 pM. Moreover, the tTF concentration at which plasma coagulated in 50 seconds (A20 cells coated with B21-2/10H10) with tTF221-cys-C' (human) was 500 pM; in test [5] it was 500 pM; in test [6], 100 pM and 200 pM; in the test with H6-tTF221-cys-C' (human) [7], 1 nM; in [8] it was 100 pM; in [9] it was 5 nM. In test [10], this substance yielded a tTF concentration at which plasma coagulated in 50 seconds (A20 cells coated with B21-2/10H10) of 1 nM.
